Laboratory results reported in PMC4598320, “Novel binders derived from an albumin-binding domain scaffold targeting human prostate secretory protein 94 (PSP94)” (Protein & Cell, 2015).
Values joined by “and” are separate entries in the source; they are usually repeats but may differ in a detail not shown here. Equal values may be shown once. Ends that are not written are not given here.

T1: PSP94 of LNCaP prostate cancer cells (membrane-bound on the cell surface); intracellular in permeabilized … (human (endogenous in LNCaP), UniProt P08118 21-114)
T1 construct: the cells were not transfected; source: endogenous, LNCaP cells (on the cell surface; inside permeabilized cells)
T1 sequence (looked up): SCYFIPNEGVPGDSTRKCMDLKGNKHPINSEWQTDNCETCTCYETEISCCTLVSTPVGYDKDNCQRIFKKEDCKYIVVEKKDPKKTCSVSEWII

T2: recombinant HisTag-PSP94 (human prostate secretory protein 94) (human, UniProt P08118 21-114, fluorescent label (in the microscale thermophoresis only))
T2 construct: prostate secretory protein 94 (PSP94, β-microseminoprotein), human, product of the MSMB gene; The letter has no methods section; the construct may be told in the supplementary file; also called His-PSP94; β-microseminoprotein; not shown: His tag, N-terminal, kept
T2 sequence (looked up): T1 sequence (looked up)

B1: PAB036 (HisTag-PAB-TolA-AviTag fusion protein) (designed binder)
chain: LAEAKVLANRELDKYGVSDWYKNGINPAHRVRWVKGRIDAILARLP
modifications: not fully specified (N-terminus, C-terminus)
notes: numbers count on: the 46-residue ABD scaffold; positions 20-46 of the ABD scaffold with the 11 randomized positions as selected in PAB036; 46-residue ABD variant linked to a 305-residue TolA spacer with a C-terminal AviTag; also called PAB036 variant; source: E. coli, purified, in vivo biotinylated; not shown: His tag, N-terminal, kept; TolA spacer (helical, 305 amino acids), C-terminal, kept; …
B2: recombinant HisTag-PSP94 (human prostate secretory protein 94) (natural protein)
chain: T1 sequence (looked up)
modifications: fluorescent label (in the microscale thermophoresis only)
B3: PAB050 (HisTag-PAB-TolA-AviTag fusion protein) (designed binder)
chain: LAEAKVLANRELDKYGVSDLYKNHINTAWRVAAVKRAIDLILASLP
modifications: not fully specified (N-terminus, C-terminus)
notes: numbers count on: the 46-residue ABD scaffold; positions 20-46 of the ABD scaffold with the 11 randomized positions as selected in PAB050; 46-residue ABD variant linked to a 305-residue TolA spacer with a C-terminal AviTag; also called PAB50; PAB050 variant; source: E. coli, purified, in vivo biotinylated; not shown: His tag, N-terminal, kept; TolA spacer (helical, 305 amino acids), C-terminal, …
B4: PAB046 (HisTag-PAB-TolA-AviTag fusion protein) (designed binder)
chain: LAEAKVLANRELDKYGVSDRYKNAINRAPAVWWVKRLIDAILAALP
modifications: not fully specified (N-terminus, C-terminus)
notes: numbers count on: the 46-residue ABD scaffold; positions 20-46 of the ABD scaffold with the 11 randomized positions as selected in PAB046; 46-residue ABD variant linked to a 305-residue TolA spacer with a C-terminal AviTag; also called PAB046 variant; source: E. coli, purified, in vivo biotinylated; not shown: His tag, N-terminal, kept; TolA spacer (helical, 305 amino acids), C-terminal, kept; …

What was measured:
[1] = target: T1, PSP94 of LNCaP prostate cancer cells …; test: flow cytometry on cells; competition: LNCaP cells with (80 µg/mL) or without rabbit polyclonal antibody sc-68920 for 15 min on ice, then PAB binders at 10 µg/mL for 30 min; streptavidin-PE; conditions: one partner purified
[2] = target: T2, recombinant HisTag-PSP94 (human …); test: MST; fluorescently labelled HisTag-PSP94 in solution, PAB variants titrated; thermophoresis + T-jump data, NanoTemper software; conditions: both partners purified
both these PAB proteins = test: flow cytometry on cells; competition: PAB variants mixed with increasing concentrations of recombinant HisTag-PSP94 and left to bind LNCaP cells for 30 min; streptavidin-PE; binding without PSP94 taken as 100%; pair recombinant PSP94 with PAB

| Binder | percent inhibition of binding by polyclonal antibody sc-68920 (the pair that is blocked) [1] [%] | Kd [2] | percent inhibition of PAB binding to LNCaP cells at 20 µg/mL PSP94 (both these PAB proteins) [%] |
| --- | --- | --- | --- |
| B1 | ~15 | 40 nM and 72 nM | – |
| B2 | – | – | 5 to 10 |
| B3 | 30 | 10 nM and 12 nM and 21 nM | – |
| B4 | 30 | 49 ± 10 nM | – |
